Data: US9845340B2, “Peptides that specifically bind HGF receptor (cMet) and uses thereof” (Dyax Corp., priority 2003, dated 2017)

Assays:
[1] = biological target: cMet-Fc fusion protein (Homo sapiens, UniProt P08581); assay: Protein phage ELISA: peptide-displaying phage binding to soluble cMet-Fc versus TRAIL-Fc; details: phage isolate; cMet-Fc vs. TRAIL-Fc
Procedure, shortened: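 Phage displaying selected peptides were incubated 2 h at room temperature on wells coated with 0.5 μg/mL cMet-Fc, with TRAIL-Fc coating as the unrelated-Fc specificity control.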

[2] = biological target: T1, 3T3 cells that over-express human cMet (Homo sapiens, UniProt P08581); assay: Whole cell ELISA of peptide-displaying phage; format: cell-based; details: phage isolate; 3T3 cells expressing human cMet vs. non-expressing 3T3 cells
T1 construct: expressed in transfected cells; host or cells: 3T3 cells
T1 sequence (P08581 25-1390): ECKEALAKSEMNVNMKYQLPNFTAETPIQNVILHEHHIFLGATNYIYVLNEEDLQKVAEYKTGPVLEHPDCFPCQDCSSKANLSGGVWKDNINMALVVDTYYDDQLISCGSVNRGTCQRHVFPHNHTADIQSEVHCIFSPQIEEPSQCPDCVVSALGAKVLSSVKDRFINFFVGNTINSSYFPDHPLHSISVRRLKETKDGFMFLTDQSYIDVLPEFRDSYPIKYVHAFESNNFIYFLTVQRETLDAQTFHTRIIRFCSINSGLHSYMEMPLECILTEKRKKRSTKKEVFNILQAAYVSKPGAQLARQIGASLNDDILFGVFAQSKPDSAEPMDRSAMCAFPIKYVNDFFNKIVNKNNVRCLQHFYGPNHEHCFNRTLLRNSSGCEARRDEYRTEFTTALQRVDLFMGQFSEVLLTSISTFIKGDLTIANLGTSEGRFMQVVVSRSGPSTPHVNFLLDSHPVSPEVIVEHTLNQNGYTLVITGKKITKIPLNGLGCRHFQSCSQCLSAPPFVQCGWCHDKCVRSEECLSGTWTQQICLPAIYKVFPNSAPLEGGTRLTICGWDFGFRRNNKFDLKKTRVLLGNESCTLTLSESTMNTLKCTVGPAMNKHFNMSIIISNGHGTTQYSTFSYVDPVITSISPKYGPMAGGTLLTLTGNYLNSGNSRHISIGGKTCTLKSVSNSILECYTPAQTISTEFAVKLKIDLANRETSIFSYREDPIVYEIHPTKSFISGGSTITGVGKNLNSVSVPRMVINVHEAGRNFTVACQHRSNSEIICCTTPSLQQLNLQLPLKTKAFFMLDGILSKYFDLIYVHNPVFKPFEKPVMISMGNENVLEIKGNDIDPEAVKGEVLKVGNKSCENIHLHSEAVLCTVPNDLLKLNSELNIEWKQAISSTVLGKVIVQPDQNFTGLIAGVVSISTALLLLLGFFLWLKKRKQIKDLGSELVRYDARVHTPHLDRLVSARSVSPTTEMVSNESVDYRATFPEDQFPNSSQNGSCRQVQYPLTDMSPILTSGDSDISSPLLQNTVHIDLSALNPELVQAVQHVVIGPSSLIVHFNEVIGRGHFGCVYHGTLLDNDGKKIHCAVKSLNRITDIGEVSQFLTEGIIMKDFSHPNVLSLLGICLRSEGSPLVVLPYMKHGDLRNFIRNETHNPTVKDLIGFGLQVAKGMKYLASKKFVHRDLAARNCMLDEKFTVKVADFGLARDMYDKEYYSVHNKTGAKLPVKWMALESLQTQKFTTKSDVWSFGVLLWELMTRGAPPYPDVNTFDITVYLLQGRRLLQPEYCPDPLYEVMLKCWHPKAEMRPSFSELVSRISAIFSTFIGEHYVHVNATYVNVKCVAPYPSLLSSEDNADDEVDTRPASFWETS
Procedure, shortened: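 Phage displaying peptides, pre-blocked 1 h at 37 °C, incubated 1 h at RT on glutaraldehyde-fixed (0.1%, 12 min, 37 °C) cMet-overexpressing 3T3 cells (10^5 per well). Binding read out by HRP anti-M13 antibody after PBST washing.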

cMet-Fc fusion protein, sequence (P08581 25-307 limits assumed): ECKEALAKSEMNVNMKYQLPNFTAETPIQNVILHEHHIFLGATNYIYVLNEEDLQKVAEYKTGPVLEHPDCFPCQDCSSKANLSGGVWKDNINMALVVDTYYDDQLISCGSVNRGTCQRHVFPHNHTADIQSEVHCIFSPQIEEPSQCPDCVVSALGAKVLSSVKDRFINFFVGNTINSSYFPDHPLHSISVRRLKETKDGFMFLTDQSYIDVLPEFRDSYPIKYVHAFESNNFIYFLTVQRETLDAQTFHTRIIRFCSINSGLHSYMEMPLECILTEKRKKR
cMet-Fc fusion protein, sequence (P08581 with tags, fused parts or gaps limits assumed): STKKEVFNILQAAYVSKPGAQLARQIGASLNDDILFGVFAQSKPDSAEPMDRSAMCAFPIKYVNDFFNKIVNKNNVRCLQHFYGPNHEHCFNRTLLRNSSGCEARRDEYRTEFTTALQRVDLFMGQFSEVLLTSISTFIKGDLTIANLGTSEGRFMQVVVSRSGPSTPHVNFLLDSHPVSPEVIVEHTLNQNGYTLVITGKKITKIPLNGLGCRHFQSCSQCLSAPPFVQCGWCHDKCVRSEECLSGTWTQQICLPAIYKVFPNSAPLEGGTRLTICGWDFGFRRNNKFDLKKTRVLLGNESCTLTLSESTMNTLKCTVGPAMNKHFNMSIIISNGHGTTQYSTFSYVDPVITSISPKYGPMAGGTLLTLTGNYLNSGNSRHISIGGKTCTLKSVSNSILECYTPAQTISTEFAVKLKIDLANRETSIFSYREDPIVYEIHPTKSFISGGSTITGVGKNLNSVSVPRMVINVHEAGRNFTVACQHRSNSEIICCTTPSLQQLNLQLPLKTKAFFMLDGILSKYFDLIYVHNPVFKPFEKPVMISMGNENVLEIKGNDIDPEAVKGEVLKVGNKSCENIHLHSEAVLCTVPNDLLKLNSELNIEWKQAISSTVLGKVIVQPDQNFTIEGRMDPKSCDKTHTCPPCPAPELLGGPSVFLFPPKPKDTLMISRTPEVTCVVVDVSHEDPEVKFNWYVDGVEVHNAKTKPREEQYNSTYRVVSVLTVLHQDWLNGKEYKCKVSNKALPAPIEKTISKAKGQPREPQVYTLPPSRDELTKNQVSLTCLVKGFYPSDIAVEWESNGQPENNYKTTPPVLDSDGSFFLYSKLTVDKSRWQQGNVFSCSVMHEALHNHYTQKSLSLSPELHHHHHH

For `CC[C@H](C)[C@H](NC(=O)[C@H](CC(C)C)NC(=O)[C@H](CCCCN)NC(=O)[C@H](CCC(=O)O)NC(=O)[C@@H](NC(=O)[C@@H](NC(=O)[C@@H](NC(=O)[C@H](C)NC(=O)[C@H](CO)NC(=O)[C@H](CC(C)C)NC(=O)[C@H](Cc1c[nH]c2ccccc12)NC(=O)[C@H](CC(=O)O)NC(=O)[C@@H]1CCCN1C(=O)[C@@H](NC(=O)[C@H](CCC(N)=O)NC(=O)[C@H](C)NC(C)=O)C(C)C)C(C)C)C(C)C)[C@@H](C)CC)C(=O)N[C@@H](CCC(=O)O)C(=O)N[C@@H](Cc1ccc(O)cc1)C(=O)NCC(=O)N[C@@H](CCSC)C(=O)N[C@@H](CCSC)C(=O)N[C@H](C(=O)NCC(=O)NCC(=O)NCC(=O)N[C@@H](CCCCNC(=O)c1ccc2c(c1)C(=O)OC21c2ccc(O)cc2Oc2cc(O)ccc21)C(N)=O)C(C)C` [SEQ ID NO: 464], the “Protein ELISA” value [1] was 4.4 fold over background and the “WC ELISA” value [2] was 1.37 fold over background.
In the case of `CSCC[C@H](NC(=O)[C@@H]1CCCN1C(=O)[C@H](CO)NC(=O)CNC(=O)[C@@H](NC(=O)[C@H](CCC(N)=O)NC(=O)[C@H](C)NC(C)=O)C(C)C)C(=O)N[C@@H](CC(C)C)C(=O)N1CCC[C@H]1C(=O)N[C@@H](CO)C(=O)N[C@@H](Cc1c[nH]c2ccccc12)C(=O)N[C@@H](Cc1ccccc1)C(=O)N[C@@H](CO)C(=O)N[C@@H](Cc1ccccc1)C(=O)N[C@@H](CCC(=O)O)C(=O)N[C@@H](C)C(=O)N[C@@H](CC(N)=O)C(=O)N[C@@H](Cc1c[nH]c2ccccc12)C(=O)N[C@@H](CO)C(=O)N[C@@H](CO)C(=O)NCC(=O)NCC(=O)NCC(=O)N[C@@H](CCCCNC(=O)c1ccc2c(c1)C(=O)OC21c2ccc(O)cc2Oc2cc(O)ccc21)C(N)=O` [SEQ ID NO: 456], the “Protein ELISA” value [1] is reported as 7.0 fold over background and the “WC ELISA” value [2] is reported as 1.30 fold over background.
With “GDHLTCEFRDDGWKEHCWWSDP (Synthetically generated cMet-binding peptide sequence) [SEQ ID NO: 403]” the “Protein ELISA” value [1] was 11.1 fold over background and the “WC ELISA” value [2] was 1.23 fold over background.
In the case of “AQFDRYWHFAWMDVSFSSGQSG (Synthetically generated cMet-binding peptide sequence) [SEQ ID NO: 465]”, the “Protein ELISA” value [1] is reported as 4.3 fold over background and the “WC ELISA” value [2] is reported as 1.20 fold over background.
With “AGLLGCWDMPMECTGEGT (Synthetically generated cMet-binding peptide sequence) [SEQ ID NO: 036]” the “Protein ELISA” value [1] was 3.6 fold over background and the “WC ELISA” value [2] was 1.27 fold over background.
With “AGYWDCKGPPHFFCEWHGT (Synthetically generated cMet-binding peptide sequence) [SEQ ID NO: 080]” the “Protein ELISA” value [1] was 7.4 fold over background and the “WC ELISA” value [2] was 1.23 fold over background.
With “AQDPGFSKHSMGHGYPSKMNWG (Synthetically generated cMet-binding peptide sequence) [SEQ ID NO: 471]” the “Protein ELISA” value [1] was 3.7 fold over background and the “WC ELISA” value [2] was 1.27 fold over background.
For “GSFWNCTTDLGAMSDCGFFAP (Synthetically generated cMet-binding peptide sequence) [SEQ ID NO: 383]”, the “Protein ELISA” value [1] was 3.1 fold over background and the “WC ELISA” value [2] was 1.37 fold over background.
In the case of “AQWNWDMGFMWTTDSAQVQPSM (Synthetically generated cMet-binding peptide sequence) [SEQ ID NO: 489]”, the “Protein ELISA” value [1] is reported as 3.0 fold over background and the “WC ELISA” value [2] is reported as 1.37 fold over background.
With “AGETVCYWLNGWFCVDDGT (Synthetically generated cMet-binding peptide sequence) [SEQ ID NO: 073]” the “Protein ELISA” value [1] was 7.8 fold over background and the “WC ELISA” value [2] was 1.10 fold over background.
`CSCC[C@H](NC(=O)[C@H](CC(=O)O)NC(=O)[C@H](C)NC(=O)[C@H](CC(=O)O)NC(=O)[C@H](CCC(N)=O)NC(=O)[C@H](CC(C)C)NC(=O)[C@H](CCC(=O)O)NC(=O)[C@H](Cc1ccc(O)cc1)NC(=O)[C@H](Cc1ccc(O)cc1)NC(=O)[C@@H]1CCCN1C(=O)[C@H](CCC(N)=O)NC(=O)[C@H](C)NC(C)=O)C(=O)N[C@@H](CC(C)C)C(=O)N[C@@H](CC(C)C)C(=O)N[C@H](C(=O)N[C@H](C(=O)N[C@@H](C)C(=O)N[C@@H](CC(C)C)C(=O)N[C@@H](CC(C)C)C(=O)N[C@@H](CO)C(=O)N[C@H](C(=O)NCC(=O)NCC(=O)NCC(=O)NCC(=O)N[C@@H](CCCCNC(=O)c1ccc2c(c1)C(=O)OC21c2ccc(O)cc2Oc2cc(O)ccc21)C(N)=O)[C@@H](C)O)C(C)C)C(C)C` [SEQ ID NO: 458] was tested, and the “Protein ELISA” value [1] was 6.1 fold over background and the “WC ELISA” value [2] was 1.20 fold over background.
`CC(=O)N[C@@H](C)C(=O)NCC(=O)NCC(=O)N[C@@H](Cc1c[nH]c2ccccc12)C(=O)N[C@@H](CCC(=O)O)C(=O)N[C@H]1CSSC[C@@H](C(=O)NCC(=O)N[C@@H](Cc2ccc(O)cc2)C(=O)N[C@@H](Cc2ccc(O)cc2)C(=O)NCC(=O)N[C@H](C(=O)NCC(=O)NCC(=O)NCC(=O)N[C@@H](CCCCNC(=O)c2ccc3c(c2)C(=O)OC32c3ccc(O)cc3Oc3cc(O)ccc32)C(N)=O)[C@@H](C)O)NC(=O)[C@H](CCC(N)=O)NC(=O)[C@H](Cc2ccccc2)NC(=O)[C@H](Cc2c[nH]c3ccccc23)NC(=O)[C@@H]2CCCN2C(=O)[C@@H]2CCCN2C(=O)CNC(=O)[C@H]([C@@H](C)O)NC1=O` [SEQ ID NO: 067] was tested, and the “Protein ELISA” value [1] was 8.0 fold over background and the “WC ELISA” value [2] was 1.47 fold over background.
In the case of “AGMDFCEGFWFLCIGNAT (Synthetically generated cMet-binding peptide sequence) [SEQ ID NO: 035]”, the “Protein ELISA” value [1] is reported as 3.5 fold over background and the “WC ELISA” value [2] is reported as 1.23 fold over background.
“ADAWMCEYFQWNCGDKGT (Synthetically generated cMet-binding peptide sequence) [SEQ ID NO: 046]” was tested, and the “Protein ELISA” value [1] was 4.5 fold over background and the “WC ELISA” value [2] was 1.33 fold over background.
“GDYRMCQISDMWGNYECSSDDP (Synthetically generated cMet-binding peptide sequence) [SEQ ID NO: 400]” was tested, and the “Protein ELISA” value [1] was 6.1 fold over background and the “WC ELISA” value [2] was 1.30 fold over background.
In the case of “AGYFECKGPPTFECWLSGT (Synthetically generated cMet-binding peptide sequence) [SEQ ID NO: 060]”, the “Protein ELISA” value [1] is reported as 8.1 fold over background and the “WC ELISA” value [2] is reported as 1.43 fold over background.
For `CC(=O)N[C@@H](C)C(=O)NCC(=O)N[C@@H](Cc1c[nH]cn1)C(=O)N[C@@H](C)C(=O)N[C@@H](Cc1c[nH]c2ccccc12)C(=O)N[C@H]1CSSC[C@@H](C(=O)N[C@@H](Cc2c[nH]c3ccccc23)C(=O)N2CCC[C@H]2C(=O)N2CCC[C@H]2C(=O)NCC(=O)N[C@H](C(=O)NCC(=O)NCC(=O)NCC(=O)N[C@@H](CCCCNC(=O)c2ccc3c(c2)C(=O)OC32c3ccc(O)cc3Oc3cc(O)ccc32)C(N)=O)[C@@H](C)O)NC(=O)[C@H](CCC(=O)O)NC(=O)[C@H](Cc2ccccc2)NC(=O)[C@H](CCCNC(=N)N)NC(=O)[C@@H]2CCCN2C(=O)[C@@H]2CCCN2C(=O)CNC(=O)[C@H](CO)NC1=O` [SEQ ID NO: 061], the “Protein ELISA” value [1] was 3.2 fold over background and the “WC ELISA” value [2] was 1.27 fold over background.
“GSLIFCPYGECMMYAP (Synthetically generated cMet-binding peptide sequence) [SEQ ID NO: 005]” was tested, and the “Protein ELISA” value [1] was 3.5 fold over background and the “WC ELISA” value [2] was 1.33 fold over background.
With “GSSHCNQMITPWQNCGMRAP (Synthetically generated cMet-binding peptide sequence) [SEQ ID NO: 374]” the “Protein ELISA” value [1] was 3.3 fold over background and the “WC ELISA” value [2] was 1.37 fold over background.
For “AGFVNCKGPPTFECILTGT (Synthetically generated cMet-binding peptide sequence) [SEQ ID NO: 057]”, the “Protein ELISA” value [1] was 12.3 fold over background and the “WC ELISA” value [2] was 1.23 fold over background.
For “AGYFHCSGSPWFQCDYYGT (Synthetically generated cMet-binding peptide sequence) [SEQ ID NO: 081]”, the “Protein ELISA” value [1] was 9.1 fold over background and the “WC ELISA” value [2] was 1.40 fold over background.
For “AQDNTADQMFNGFHVLAMYMV (Synthetically generated cMet-binding peptide sequence) [SEQ ID NO: 481]”, the “Protein ELISA” value [1] was 3.3 fold over background and the “WC ELISA” value [2] was 1.37 fold over background.
“AGVTNCNLSTMFCFLHGT (Synthetically generated cMet-binding peptide sequence) [SEQ ID NO: 026]” was tested, and the “Protein ELISA” value [1] was 3.8 fold over background and the “WC ELISA” value [2] was 1.30 fold over background.
For “AQELFQILEKQMWSDFMEWATP (Synthetically generated cMet-binding peptide sequence) [SEQ ID NO: 474]”, the “Protein ELISA” value [1] was 3.6 fold over background and the “WC ELISA” value [2] was 1.23 fold over background.
“AGVIVCNLSMMYCLYPGT (Synthetically generated cMet-binding peptide sequence) [SEQ ID NO: 023]” was tested, and the “Protein ELISA” value [1] was 3.2 fold over background and the “WC ELISA” value [2] was 1.33 fold over background.
